Test results: publication PMC8637920, “Structure, Function and Regulation of a Second Pyruvate Kinase Isozyme in Pseudomonas aeruginosa” (Frontiers in Microbiology, 2021)

Assays:
PykFPA = molecular target: T1, PykFPA (Pseudomonas aeruginosa, UniProt Q9I3L4); assay: lactate dehydrogenase-coupled assay, activation; format: biochemical; conditions: K-type activator (shifts S0.5 of PEP), 2 mM ADP, allosteric
T1 construct: gene pykF; full-length, 477 residues, untagged, from pET-19m in E. coli BL21(DE3)
T1 sequence (Q9I3L4 1-477): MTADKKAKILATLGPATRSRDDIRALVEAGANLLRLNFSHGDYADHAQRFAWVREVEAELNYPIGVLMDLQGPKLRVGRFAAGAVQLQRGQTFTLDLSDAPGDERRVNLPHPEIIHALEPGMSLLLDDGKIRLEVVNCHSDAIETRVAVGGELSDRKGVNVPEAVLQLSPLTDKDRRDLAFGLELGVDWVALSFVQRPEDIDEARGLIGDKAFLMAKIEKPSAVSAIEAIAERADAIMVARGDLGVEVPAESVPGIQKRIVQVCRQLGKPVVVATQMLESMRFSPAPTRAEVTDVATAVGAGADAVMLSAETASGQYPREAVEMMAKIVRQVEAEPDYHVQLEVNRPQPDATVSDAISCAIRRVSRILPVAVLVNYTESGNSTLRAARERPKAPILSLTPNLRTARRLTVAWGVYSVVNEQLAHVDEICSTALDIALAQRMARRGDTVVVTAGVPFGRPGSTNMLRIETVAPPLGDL

[1] = molecular target: the molecule itself; assay: AUC; purified PykFPA in solution; carried out as previously described (Abdelhamid et al., 2019); analysed with SEDFIT and SEDNTERP
[2] = substrate: C=C(OP(=O)(O)O)C(=O)O; assay: lactate dehydrogenase-coupled assay; format: biochemical, Pseudomonas aeruginosa; conditions: 2 mM ADP; Mg2+; no regulator added; sigmoidal
[3] = substrate: Nc1ncnc2c1ncn2[C@@H]1O[C@H](COP(=O)(O)OP(=O)(O)O)[C@@H](O)[C@H]1O; assay: lactate dehydrogenase-coupled assay; format: biochemical, Pseudomonas aeruginosa; conditions: 5 mM PEP; Mg2+; no regulator added; hyperbolic

O=C(CO)[C@@H](O)[C@H](O)COP(=O)(O)O [xylulose 5-phosphate]
lactate dehydrogenase-coupled assay, activation (PykFPA; 0.5 mM): strongly activated by metabolites from the non-oxidative PPP [(xylulose 5-phosphate (X5P)

O=C[C@H](O)COP(=O)(O)O [glyceraldehyde 3-phosphate]
lactate dehydrogenase-coupled assay, activation (PykFPA; 1 mM): to a lesser extent, by the EDP intermediates G6P and G3P

O=P(O)(O)OC[C@H]1OC(O)[C@H](O)[C@@H](O)[C@@H]1O (stereo partly shown) [glucose 6-phosphate]
lactate dehydrogenase-coupled assay, activation (PykFPA; 1 mM): to a lesser extent, by the EDP intermediates G6P and G3P

Nc1ncnc2c1ncn2[C@@H]1O[C@H](COP(=O)(O)O)[C@@H](O)[C@H]1O [adenosine 5′-monophosphate]
lactate dehydrogenase-coupled assay, activation (PykFPA; 1 mM): PykFPA (but not PykAPA) was activated by AMP

O=P(O)(O)OC[C@H]1OC(O)[C@H](O)[C@@H]1O (stereo partly shown) [ribose 5-phosphate]
lactate dehydrogenase-coupled assay, activation (PykFPA; 0.15 mM): ribulose 5-phosphate (RL5P), and R5P]

O=C(CO)[C@H](O)[C@H](O)COP(=O)(O)O [ribulose 5-phosphate]
lactate dehydrogenase-coupled assay, activation (PykFPA; 0.5 mM): ribulose 5-phosphate (RL5P), and R5P]

B1: Pseudomonas aeruginosa pyruvate kinase isozyme PykF (PykFPA) (enzyme, UniProt Q9I3L4 1-477, looked up)
chain: MTADKKAKILATLGPATRSRDDIRALVEAGANLLRLNFSHGDYADHAQRFAWVREVEAELNYPIGVLMDLQGPKLRVGRFAAGAVQLQRGQTFTLDLSDAPGDERRVNLPHPEIIHALEPGMSLLLDDGKIRLEVVNCHSDAIETRVAVGGELSDRKGVNVPEAVLQLSPLTDKDRRDLAFGLELGVDWVALSFVQRPEDIDEARGLIGDKAFLMAKIEKPSAVSAIEAIAERADAIMVARGDLGVEVPAESVPGIQKRIVQVCRQLGKPVVVATQMLESMRFSPAPTRAEVTDVATAVGAGADAVMLSAETASGQYPREAVEMMAKIVRQVEAEPDYHVQLEVNRPQPDATVSDAISCAIRRVSRILPVAVLVNYTESGNSTLRAARERPKAPILSLTPNLRTARRLTVAWGVYSVVNEQLAHVDEICSTALDIALAQRMARRGDTVVVTAGVPFGRPGSTNMLRIETVAPPLGDL
notes: Pyruvate kinase PykF of Pseudomonas aeruginosa (PA1498), untagged full-length protein, 477 residues, monomer 51.5 kDa; also called PA1498; source: E. coli BL21 (DE3) with plasmid pET-19m (pykF), purified
stoichiometry N [1]: 4 | K0.5 [2]: 1.03 ± 0.01 mM | kcat [2]: 379 s⁻¹ | kcat/Km [2]: 367000 M⁻¹ s⁻¹ | K0.5 [3]: 0.11 ± 0.01 mM | kcat [3]: 433 s⁻¹ | kcat/Km [3]: 3.94e+06 M⁻¹ s⁻¹
